Columns and labels:
hu FGF-19-His [1] = molecular target: T1, hu FGF-19-His (human, UniProt O95750 25-216, limits assumed); assay: SPR, BIAcore-3000, antibody coupled to CM5 chip (~500 RU), FGF19-His injected 0.7-500 nM, 25 C, 1:1 Langmuir model
T1 construct: Analyte in SPR; Construct limits and tag not described; not shown: His tag
Method: Briefly, carboxymethylated dextran biosensor chips (CM5, BIAcore Inc.) were activated with N-ethyl-N′-(3-dimethylaminopropyl)-carbodiimide hydrochloride (EDC) and N-hydroxysuccinimide (NHS) according to the supplier's instructions. […] Next, 1M ethanolamine was injected to block unreacted groups. […] Association rates (kₒₙ) and dissociation rates (koff) were calculated using a simple one-to-one Langmuir binding model (BIAcore Evaluation Software version 3.2).

FGF19 protein [2] = molecular target: T2, FGF19 protein (human, UniProt O95750 25-216, limits assumed); assay: solid phase receptor binding assay, blocking: FGF19 binding to captured FGFR4-Fc with antibody titrated
T2 construct: 125I-labelled for the Scatchard analysis. 'Human' is stated for hu FGF-19-His and for the anti-human FGF19 antibodies, not in these assay descriptions; also called Fibroblast growth factor 19; [125I]FGF19
T2 sequence (O95750 25-216 limits assumed): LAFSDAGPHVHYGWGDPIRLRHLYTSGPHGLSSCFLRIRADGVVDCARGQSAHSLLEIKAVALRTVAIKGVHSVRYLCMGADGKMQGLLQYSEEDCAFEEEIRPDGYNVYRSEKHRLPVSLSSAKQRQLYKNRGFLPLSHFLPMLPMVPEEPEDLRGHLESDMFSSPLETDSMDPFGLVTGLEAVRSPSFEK
Method: (§1) Maxisorb 96 well plates were coated overnight at 4° C. with 50 μl of 2 μg/ml anti-human immunoglobulin Fcγ fragment specific antibody (Jackson Immunoresearch) and used to capture 1 μg/ml FGFR-Fc chimeric proteins (R & D Systems).

FGF19 protein [3] = molecular target: T2, FGF19 protein; assay: solid phase receptor binding assay: FGF19 binding to captured FGFR4-Fc with antibody present; solid phase receptor binding assay, blocking of FGF19 binding to FGFR4
Method: as §1

hu FGF-19-His [4] = molecular target: T1, hu FGF-19-His; assay: ELISA, FGF19-His captured on nickel plates, HRP anti-mouse IgG detection; ELISA binding EC50
Source text: (§2) Non-specific binding sites of HisGrab Nickel coated plates (Pierce) were saturated with PBS/3% BSA. […] The bound antibodies were detected using a HRP conjugated anti-mouse IgG (Jackson Immunoresearch) and the TMB peroxydase colorigenic substrate (KPL).

hu FGF-19-His [5] = molecular target: T1, hu FGF-19-His; assay: solid phase antibody binding assay: FGF19-His captured on nickel coated plates, HRP anti-mouse IgG
Source text: as §2

T1 sequence (O95750 25-216 limits assumed): as above

Kd (hu FGF-19-His [1]): < 9 pM | IC50 (read off the curve) (FGF19 protein [2]): ~0.5 µg/mL | IC50 (FGF19 protein [3]): 3000 pM | EC50 (hu FGF-19-His [4]): 40 pM | EC50 (read off the curve) (hu FGF-19-His [5]): ~0.03 µg/mL
B1: mouse anti-human FGF19 monoclonal antibody 1A6 (antibody, V domains shown)
VH: QVQLKQSGPGLVQPSQSLSITCTVSGFSLTTYGVHWVRQSPGKGLEWLGVIWPGGGTDYNAAFISRLSITKDNSKSQVFFKMNSLLANDTAIYFCVRKEYANLYAMDYWGQGTLLTVSA
VL: DIKMTQSPSSMYASLGERVTIPCKASQDINSFLSWFQQKPGKSPKTLIYRANRLVDGVPSRFSGSGSGQDYSLTISSLEYEDMGIYYCLQYDEFPLTFGAGTKVEIKR
notes: Mouse hybridoma monoclonal antibody, purified from ascites on protein A-agarose; also called anti-FGF19 mab 1A6; anti-FGF19 Mab 1A6
